In PMC12797002, “Hydrophobic residues in the α‐synuclein NAC domain drive seed‐competent fibril formation and are targeted by peptide inhibitors” (The Febs Journal, 2025):
Entries after “also recorded” stand apart in the source; their conditions may differ.

Experiments:
[1] = UV-Vis spectrophotometric analysis of soluble and insoluble fractions; assay type: physicochemical; conditions: 100 μM peptide, 48 h incubation without ThT, 65 000 g 1 h, 1× PBS pH 7.2, spectra 400–600 nm; means of 3 replicates
Method: To fractionate aggregated samples (recombinant αSyn or NAC peptides), 20% of the aggregation mixture was set aside as the ‘total fraction’. The remaining sample was centrifuged at room temperature at 65 000 g for 1 h. The supernatant was collected as the ‘soluble fraction’ and transferred to a fresh tube. The pellet was resuspended in 80 μL of 1× PBS (pH 7.2) and centrifuged at 65 000 g for 1 h. After removing the supernatant, the pellet was resuspended in 8 μL of 1× PBS (pH 7.2), yielding a 10× concentrated ‘insoluble fraction’.
NAC peptides (100 μM) were incubated without ThT for 48 h to allow aggregation. The resulting mixtures were centrifuged at 65 000 g for 1 h to separate the soluble and insoluble fractions, as outlined above. Insoluble fractions were resuspended in an equal volume of 1× PBS (pH 7.2) as the soluble fractions. UV–Vis absorption spectra were recorded from 400 to 600 nm using an EnSpire Multimode Plate Reader (Revvity) with a resolution of 10 nm.

[2] = ThT aggregation kinetics and AFM/TEM imaging of NAC peptides; assay type: physicochemical; conditions: for aggregation (ThT kinetics) / lag time of aggregation compared with NAC35: 100 μM peptide, n = 3; for aggregation (ThT kinetics): 15 μM ThT, 1× PBS pH 7.2, 37 °C, 1000 rpm, 48–72 h, ThT fluorescence; for aggregate morphology (AFM and TEM): after 48 h of aggregation; for Key observations: fibril formation and stability / Key observations: nucleation: summary table; for lag time of aggregation compared with NAC35: ThT readings 0–10 h, Boltzmann sigmoidal fit, PBS pH 7.2, 37 °C
Method: NAC peptides stored at −80 °C were thawed on ice and centrifuged at 12 100 g for 45 s. A reaction mixture (40 μL) was prepared on ice containing 100 μM NAC peptide, either alone or in combination with inhibitor peptides at a 1 : 2 molar ratio, along with 15 μM ThT (Sigma‐Aldrich, Burlington, MA, USA; Cat. # T3516‐5G) in 1× PBS (pH 7.2). This mixture was then dispensed into a clear‐bottom, black 384‐well plate (Revvity, Waltham, MA, USA), and the plate was sealed with a TopSealA‐PLUS (Revvity) to prevent evaporation.
The aggregation kinetics was monitored on an EnSpire Multimode Plate Reader (Revvity) at 37 °C with a constant agitation of 1000 rpm. To prevent condensation in the assay plate, the upper heater temperature in the plate reader was set to 2 °C higher than the lower heater temperature. ThT (Ex: 460–490 nm, Em: 500–550 nm) fluorescence readings were recorded every 5–10 min for 48–72 h. The aggregation lag time was determined by fitting a Boltzmann sigmoidal equation to the fluorescence data in OriginPro 2024 (OriginLab Corporation, Northampton, MA, USA).
NAC peptide aggregates, collected after 48 h of the aggregation assay, were dropped onto a freshly cleaved 10 mm AFM mica disc (Ted Pella, Inc., Redding, CA, USA) and air‐dried for 10 min at room temperature. The mica discs were washed five times with deionized water and then dried for 10–15 min at room temperature. AFM imaging was performed as described, using the […] AIR probe (tip radius: 2 nm, spring constant: 0.4 N/m).
Samples were dropped on glow‐discharged carbon‐coated copper grids and negatively stained with 2% uranyl acetate. Electron microscopy was performed on a Tecnai G2 F20 microscope (FEI Technologies, Hillsboro, OR, USA) with an Eagle 4K CCD camera (FEI Technologies) or a CM100 TWIN Transmission Electron Microscope (Philips, Amsterdam, Netherlands) equipped with a side‐mounted Veleta Camera (Olympus, Tokyo, Japan) and processed in the iTEM software suite (Olympus). After bringing the images to 2048 × 2048 pixels, the pixel size at the specimen level was 1.14 nm. Approximately 20 micrographs of each specimen were recorded and evaluated.

[3] = ANS assay of NAC peptide aggregation at different pH; assay type: physicochemical; conditions: ANS fluorescence, 100 μM peptide; for aggregation on altering pH: acidic, neutral (pH 7.2) and basic (pH 8.0) PBS, 37 °C; for lag time at acidic pH compared with neutral pH / lag time at basic pH compared with neutral pH: 40 μM ANS, 1× PBS, 1000 rpm, n = 3; for lag time at acidic pH compared with neutral pH: acidic (pH 4.5 in legend, pH 4.2 in method) vs pH 7.2, 37 °C; for lag time at basic pH compared with neutral pH: pH 8.0 vs pH 7.2, 37 °C
Method: A 40‐μL reaction mixture was prepared on ice containing 100 μM NAC peptides and 40 μM 8‐anilino‐1‐naphthalenesulfonic acid (ANS; Sigma‐Aldrich, Cat. # A1028‐5G) in 1× PBS at pH 4.2, 7.2, or 8.0. The aggregation kinetics were monitored on an EnSpire Multimode Plate Reader (Revvity) at 37 °C with a constant agitation of 1000 rpm. ANS fluorescence readings (Ex: 390 nm, Em: 475 nm) were recorded every 5–10 min for 48–72 h. The lag time of aggregation was determined by fitting a Boltzmann sigmoidal equation, as described in the previous section.

[4] = target: T1, monomeric αSyn (Homo sapiens, UniProt P37840, A53T); experiment: In vitro seeding assay with preformed fibrils (ThT, dot blot, Coomassie gel); assay type: biochemical; conditions: for seeding of αSyn aggregation (effect on lag time) in words: 100 μM αSyn + 25 μM preformed fibrils, ThT; for αSyn dimerization (dimer-to-monomer band ratio, Coomassie gel): insoluble fractions of seeded αSyn, n = 2; for Key observations: seeding of αSyn aggregation: summary table
T1 construct: made in house
Method: For the in vitro seeding assay, αSyn (100 μM), NAC35 (100 μM), NAC16 (200 μM), and NAC11 (200 μM) peptides were aggregated without ThT for 72–96 h. Fibril formation was confirmed by mixing 10 μL of the aggregated sample with 15 μM ThT and measuring fluorescence using an EnSpire Multimode Plate Reader (Revvity). Aggregates were then centrifuged to separate insoluble fractions as described above.
αSyn (100 μM) was incubated with 25 μM insoluble fractions (preformed fibrils) of αSyn, NAC35, NAC16, and NAC11 in a 100–150 μL volume per well of a 96‐well ViewPlate in the presence of 50 μM ThT. The aggregation kinetics were monitored on an EnSpire Multimode Plate Reader (Revvity) at 37 °C with a constant agitation of 1000 rpm. ThT fluorescence was recorded every 5–10 min for over 60–65 h. After aggregation, the contents of each well were collected, and insoluble fractions were isolated by centrifugation. These fractions were subsequently analyzed using dot blot analysis and Coomassie gel staining.
The samples were mixed with 2× Laemmli buffer [62.5 mM Tris/HCl (pH 6.8), 25% (w/v) glycerol, 2% SDS, and 0.01% Bromophenol Blue, supplemented with 5% (v/v) 2‐mercaptoethanol] and boiled at 95 °C for 5 min. The samples were then subjected to electrophoresis using Mini‐PROTEAN TGX 4–20% Precast gels (Bio‐Rad, Hercules, CA, USA, Cat. # 4561095) in Tris/glycine/SDS running buffer (Bio‐Rad). Gels were fixed in 50% methanol (v/v) and 10% acetic acid (v/v) for 1 h, stained with Coomassie Brilliant Blue R‐250 Staining Solution (Bio‐Rad, Cat. # 1610436EDU) for 12 h at 4 °C with gentle agitation, and destained in deionized water. Gel images were acquired using a ChemiDoc MP imaging system (Bio‐Rad), and densitometry was performed using the IMAGEJ software (RRID: SCR_003070; Bethesda, MD, USA).
Five μL of the sample (2.5 μL first, allowed to dry completely, then another 2.5 μL) was spotted onto a nitrocellulose membrane (Bio‐Rad, Cat. # 1620147), pre‐divided into uniform circular grids, and allowed to dry for 10 min at room temperature. The membrane was blocked for 1 h with 5% bovine serum albumin (BSA) in 1× Tris‐buffered saline with 0.05% Tween® 20 (TBST), followed by 3× washes with TBST. The membrane was then incubated for 1 h with anti‐α‐Synuclein (D37A6) rabbit monoclonal antibody (Cell Signaling Technology, Inc., Danvers, MA, USA, Cat. # 4179, RRID: AB_1904156), which recognizes an epitope surrounding Glu105 in the C‐terminal region of αSyn, and was used at a 1 : 2000 dilution in 5% BSA/TBST. After 3× washes with TBST, the blot was incubated with Alexa Fluor™ 647 Goat anti‐Rabbit IgG (Thermo Fisher Scientific; Cat. # A‐21245) at a 1 : 5000 dilution for 1 h. The blot was imaged using the ChemiDoc MP imaging system (Bio‐Rad), and densitometry was performed using IMAGEJ.

Substance	solubility: UV–Vis absorption of soluble and insoluble fractions [1]	aggregation (ThT kinetics) [2]	aggregate morphology (AFM and TEM) [2]	Key observations: fibril formation and stability [2]	Key observations: nucleation [2]	aggregation on altering pH [3]	seeding of αSyn aggregation (effect on lag time) in words [4]	αSyn dimerization (dimer-to-monomer band ratio, Coomassie gel) [4]	Key observations: seeding of αSyn aggregation [4]	lag time of aggregation compared with NAC35 [2]	lag time at acidic pH compared with neutral pH [3]	lag time at basic pH compared with neutral pH [3]
NAC8: shortest NAC peptide, eight residues, corresponding to αSyn 72–79 (TGVTAVAQ)	indistinguishable spectra for soluble and insoluble fractions; also recorded: remained fully soluble	did not aggregate	no fibrillar or aggregated structures were formed	No nucleation or fibril formation observed	No nucleation or fibril formation observed	did not induce	–	–	–	–	–	–
NAC11: truncated NAC peptide corresponding to αSyn 68–78, the minimal toxic core (GAVVTGVTAVA)	clear increase in absorbance in the insoluble fraction	readily underwent aggregation	dense, sticky bundles lacking elongated tangles	forms unstable fibrils prone to precipitation	Rapid nucleation	–	fail to seed αSyn aggregation	did not promote dimerization or aggregation	lacks seeding ability	shorter lag time of aggregation than NAC35	longer lag times	longer lag times
NAC12: truncated NAC peptide corresponding to αSyn 71–82 (VTGVTAVAQKTV)	indistinguishable spectra for soluble and insoluble fractions; also recorded: remained fully soluble	did not aggregate	no fibrillar or aggregated structures were formed	No nucleation or fibril formation observed	No nucleation or fibril formation observed	did not induce	–	–	–	–	–	–
NAC16: truncated NAC peptide corresponding to αSyn 63–78 (VTNVGGAVVTGVTAVA)	clear increase in absorbance in the insoluble fraction	readily underwent aggregation	elongated fibrils with clumped tangles	moderately stable fibrils	Rapid nucleation	–	fail to seed αSyn aggregation	did not promote dimerization or aggregation	lacks seeding ability	shorter lag time of aggregation than NAC35	longer lag times	longer lag times
NAC17: truncated NAC peptide corresponding to αSyn 79–95 (QKTVEGAGSIAAATGFV)	indistinguishable spectra for soluble and insoluble fractions; also recorded: remained fully soluble	did not aggregate	no fibrillar or aggregated structures were formed	No nucleation or fibril formation observed.	No nucleation or fibril formation observed.	did not induce	–	–	–	–	–	–
